B1: EEHEE_rd4_0469 (parent)
chain: ITIHVNGVTYHFDNPEEAEKFAQKMAKTYQLKMEIHNGEFHME

Variants of: B1
Test: folding stability dG (cDNA display proteolysis); higher = more stable
Details: PBS, room temperature

First: ITIQVNGVTYHFDNPEEAEKFAQKMAKTYQLKMEIHNGEFHME [H4Q]
Second: ITIDVNGVTYHFDNPEEAEKFAQKMAKTYQLKMEIHNGEFHME [H4D]
The “folding stability dG” value of the first is higher: 0.774 kcal/mol for the first, 0.586 kcal/mol for the second.

First: ITIYVNGVTYHFDNPEEAEKFAQKMAKTYQLKMEIHNGEFHME [H4Y]
Second: ITILVNGVTYHFDNPEEAEKFAQKMAKTYQLKMEIHNGEFHME [H4L]
The “folding stability dG” value of the first is higher: 1.29 kcal/mol for the first, 0.939 kcal/mol for the second.

Going from ITINVNGVTYHFDNPEEAEKFAQKMAKTYQLKMEIHNGEFHME [H4N] to ITIVVNGVTYHFDNPEEAEKFAQKMAKTYQLKMEIHNGEFHME [H4V], the “folding stability dG” value rises from 0.813 kcal/mol to 0.899 kcal/mol.

Going from ITIEVNGVTYHFDNPEEAEKFAQKMAKTYQLKMEIHNGEFHME [H4E] to ITIMVNGVTYHFDNPEEAEKFAQKMAKTYQLKMEIHNGEFHME [H4M], the “folding stability dG” value rises from 0.692 kcal/mol to 0.82 kcal/mol.

First: ITIAVNGVTYHFDNPEEAEKFAQKMAKTYQLKMEIHNGEFHME [H4A]
Second: ITIWVNGVTYHFDNPEEAEKFAQKMAKTYQLKMEIHNGEFHME [H4W]
The “folding stability dG” value of the first is lower: 0.76 kcal/mol for the first, 1.35 kcal/mol for the second.

Compared with ITICVNGVTYHFDNPEEAEKFAQKMAKTYQLKMEIHNGEFHME [H4C], ITIPVNGVTYHFDNPEEAEKFAQKMAKTYQLKMEIHNGEFHME [H4P] is lower in “folding stability dG” value: 1.77 kcal/mol for the first, 0.265 kcal/mol for the second.

Going from ITIFVNGVTYHFDNPEEAEKFAQKMAKTYQLKMEIHNGEFHME [H4F] to ITITVNGVTYHFDNPEEAEKFAQKMAKTYQLKMEIHNGEFHME [H4T], the “folding stability dG” value falls from 1.08 kcal/mol to 0.943 kcal/mol.

Compared with ITIIVNGVTYHFDNPEEAEKFAQKMAKTYQLKMEIHNGEFHME [H4I], ITIKVNGVTYHFDNPEEAEKFAQKMAKTYQLKMEIHNGEFHME [H4K] is lower in “folding stability dG” value: 0.994 kcal/mol for the first, 0.918 kcal/mol for the second.

Compared with ITISVNGVTYHFDNPEEAEKFAQKMAKTYQLKMEIHNGEFHME [H4S], ITIGVNGVTYHFDNPEEAEKFAQKMAKTYQLKMEIHNGEFHME [H4G] is lower in “folding stability dG” value: 0.684 kcal/mol for the first, 0.633 kcal/mol for the second.

First: ITIRVNGVTYHFDNPEEAEKFAQKMAKTYQLKMEIHNGEFHME [H4R]
Second: IMIHVNGVTYHFDNPEEAEKFAQKMAKTYQLKMEIHNGEFHME [T2M]
The “folding stability dG” value of the first is higher: 1.08 kcal/mol for the first, 1.01 kcal/mol for the second.

Compared with IYIHVNGVTYHFDNPEEAEKFAQKMAKTYQLKMEIHNGEFHME [T2Y], IRIHVNGVTYHFDNPEEAEKFAQKMAKTYQLKMEIHNGEFHME [T2R] is higher in “folding stability dG” value: 1.36 kcal/mol for the first, 1.46 kcal/mol for the second.

Going from IHIHVNGVTYHFDNPEEAEKFAQKMAKTYQLKMEIHNGEFHME [T2H] to ILIHVNGVTYHFDNPEEAEKFAQKMAKTYQLKMEIHNGEFHME [T2L], the “folding stability dG” value falls from 1.51 kcal/mol to 1.25 kcal/mol.

Compared with IKIHVNGVTYHFDNPEEAEKFAQKMAKTYQLKMEIHNGEFHME [T2K], ISIHVNGVTYHFDNPEEAEKFAQKMAKTYQLKMEIHNGEFHME [T2S] is lower in “folding stability dG” value: 1.31 kcal/mol for the first, 1.08 kcal/mol for the second.

Compared with IIIHVNGVTYHFDNPEEAEKFAQKMAKTYQLKMEIHNGEFHME [T2I], INIHVNGVTYHFDNPEEAEKFAQKMAKTYQLKMEIHNGEFHME [T2N] is lower in “folding stability dG” value: 1.24 kcal/mol for the first, 1.17 kcal/mol for the second.

First: IWIHVNGVTYHFDNPEEAEKFAQKMAKTYQLKMEIHNGEFHME [T2W]
Second: IVIHVNGVTYHFDNPEEAEKFAQKMAKTYQLKMEIHNGEFHME [T2V]
The “folding stability dG” value of the first is higher: 1.47 kcal/mol for the first, 1.13 kcal/mol for the second.

Compared with IPIHVNGVTYHFDNPEEAEKFAQKMAKTYQLKMEIHNGEFHME [T2P], IGIHVNGVTYHFDNPEEAEKFAQKMAKTYQLKMEIHNGEFHME [T2G] is higher in “folding stability dG” value: 0.663 kcal/mol for the first, 0.665 kcal/mol for the second.

Going from IQIHVNGVTYHFDNPEEAEKFAQKMAKTYQLKMEIHNGEFHME [T2Q] to ITPHVNGVTYHFDNPEEAEKFAQKMAKTYQLKMEIHNGEFHME [I3P], the “folding stability dG” value falls from 0.972 kcal/mol to -0.854 kcal/mol.

First: ITQHVNGVTYHFDNPEEAEKFAQKMAKTYQLKMEIHNGEFHME [I3Q]
Second: ITRHVNGVTYHFDNPEEAEKFAQKMAKTYQLKMEIHNGEFHME [I3R]
The “folding stability dG” value of the first is lower: -0.059 kcal/mol for the first, 0.201 kcal/mol for the second.

Compared with ITVHVNGVTYHFDNPEEAEKFAQKMAKTYQLKMEIHNGEFHME [I3V], ITMHVNGVTYHFDNPEEAEKFAQKMAKTYQLKMEIHNGEFHME [I3M] is lower in “folding stability dG” value: 1.35 kcal/mol for the first, 0.706 kcal/mol for the second.

Going from ITNHVNGVTYHFDNPEEAEKFAQKMAKTYQLKMEIHNGEFHME [I3N] to ITKHVNGVTYHFDNPEEAEKFAQKMAKTYQLKMEIHNGEFHME [I3K], the “folding stability dG” value rises from -0.377 kcal/mol to 0.19 kcal/mol.

Compared with ITLHVNGVTYHFDNPEEAEKFAQKMAKTYQLKMEIHNGEFHME [I3L], ITFHVNGVTYHFDNPEEAEKFAQKMAKTYQLKMEIHNGEFHME [I3F] is higher in “folding stability dG” value: 0.868 kcal/mol for the first, 0.925 kcal/mol for the second.

Compared with ITTHVNGVTYHFDNPEEAEKFAQKMAKTYQLKMEIHNGEFHME [I3T], ITDHVNGVTYHFDNPEEAEKFAQKMAKTYQLKMEIHNGEFHME [I3D] is lower in “folding stability dG” value: 0.127 kcal/mol for the first, 0.068 kcal/mol for the second.

Compared with ITWHVNGVTYHFDNPEEAEKFAQKMAKTYQLKMEIHNGEFHME [I3W], ITSHVNGVTYHFDNPEEAEKFAQKMAKTYQLKMEIHNGEFHME [I3S] is lower in “folding stability dG” value: 0.819 kcal/mol for the first, -0.094 kcal/mol for the second.

Going from ITCHVNGVTYHFDNPEEAEKFAQKMAKTYQLKMEIHNGEFHME [I3C] to ITYHVNGVTYHFDNPEEAEKFAQKMAKTYQLKMEIHNGEFHME [I3Y], the “folding stability dG” value falls from 1.55 kcal/mol to 0.837 kcal/mol.

Compared with ITGHVNGVTYHFDNPEEAEKFAQKMAKTYQLKMEIHNGEFHME [I3G], ITAHVNGVTYHFDNPEEAEKFAQKMAKTYQLKMEIHNGEFHME [I3A] is lower in “folding stability dG” value: 0.58 kcal/mol for the first, 0.525 kcal/mol for the second.

Compared with ITHHVNGVTYHFDNPEEAEKFAQKMAKTYQLKMEIHNGEFHME [I3H], ITEHVNGVTYHFDNPEEAEKFAQKMAKTYQLKMEIHNGEFHME [I3E] is lower in “folding stability dG” value: 0.159 kcal/mol for the first, -0.263 kcal/mol for the second.

Compared with ITIHVNRVTYHFDNPEEAEKFAQKMAKTYQLKMEIHNGEFHME [G7R], ITIHVNTVTYHFDNPEEAEKFAQKMAKTYQLKMEIHNGEFHME [G7T] is lower in “folding stability dG” value: 1.04 kcal/mol for the first, 0.96 kcal/mol for the second.

Going from ITIHVNKVTYHFDNPEEAEKFAQKMAKTYQLKMEIHNGEFHME [G7K] to ITIHVNWVTYHFDNPEEAEKFAQKMAKTYQLKMEIHNGEFHME [G7W], the “folding stability dG” value rises from 1 kcal/mol to 1.43 kcal/mol.

Compared with ITIHVNLVTYHFDNPEEAEKFAQKMAKTYQLKMEIHNGEFHME [G7L], ITIHVNHVTYHFDNPEEAEKFAQKMAKTYQLKMEIHNGEFHME [G7H] is lower in “folding stability dG” value: 1.33 kcal/mol for the first, 1.13 kcal/mol for the second.

In the case of ITIHVNDVTYHFDNPEEAEKFAQKMAKTYQLKMEIHNGEFHME [G7D], the “folding stability dG” value is reported as 0.859 kcal/mol.
